For series [1], the target named is T1, MbcS (methylbutyryl-CoA synthetase; SAUSA300_2542) (Staphylococcus aureus, UniProt A0A0H2XHR6).
T1 sequence (A0A0H2XHR6 1-532): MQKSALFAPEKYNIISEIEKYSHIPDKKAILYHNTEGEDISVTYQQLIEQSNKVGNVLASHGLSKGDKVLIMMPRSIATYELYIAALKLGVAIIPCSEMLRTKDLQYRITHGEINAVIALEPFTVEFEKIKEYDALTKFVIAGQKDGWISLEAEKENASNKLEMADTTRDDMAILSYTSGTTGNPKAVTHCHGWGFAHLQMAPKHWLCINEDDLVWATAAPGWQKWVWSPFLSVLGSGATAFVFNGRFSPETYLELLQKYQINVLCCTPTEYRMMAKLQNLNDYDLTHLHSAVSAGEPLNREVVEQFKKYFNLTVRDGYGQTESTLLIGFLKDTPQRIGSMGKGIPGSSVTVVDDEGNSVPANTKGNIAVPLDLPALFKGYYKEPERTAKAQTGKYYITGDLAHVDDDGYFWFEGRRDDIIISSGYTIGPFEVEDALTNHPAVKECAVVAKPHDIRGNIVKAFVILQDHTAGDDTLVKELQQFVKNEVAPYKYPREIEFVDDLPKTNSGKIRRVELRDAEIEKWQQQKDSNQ
Kind of series: LC-MS/MS of acyl-CoA product, Michaelis-Menten fit. The following applies: 2.5 mM ATP, 2.5 mM Mg2+, 200 μM CoA, Tris pH 7.5, 37 °C.

Substrate in series [2]: CC(C)(COP(=O)(O)OP(=O)(O)OC[C@H]1O[C@@H](n2cnc3c(N)ncnc32)[C@H](O)[C@@H]1OP(=O)(O)O)[C@@H](O)C(=O)NCCC(=O)NCCS
The experiment in a line: purified protein. To be noted: 2.5 mM ATP, 2.5 mM Mg2+, 50 μM aC5, Tris pH 7.5, 37 °C.

Substrate in series [3]: CCCC(=O)O
Kind of series: purified protein. The following applies: 2.5 mM ATP, 2.5 mM Mg2+, 200 μM CoA, Tris pH 7.5, 37 °C.

Substrate in series [4]: Nc1ncnc2c1ncn2[C@@H]1O[C@H](COP(=O)(O)OP(=O)(O)OP(=O)(O)O)[C@@H](O)[C@H]1O
The experiment in a line: purified protein. The following applies: 2.5 mM Mg2+, 200 μM CoA, 50 μM aC5, Tris pH 7.5, 37 °C.

We go through three molecules from paper PMC10026030, “A short-chain acyl-CoA synthetase that supports branched-chain fatty acid synthesis in Staphylococcus aureus” (The Journal of Biological Chemistry, 2023).

Read-outs that look alike come from different tables or passages of the source. Bounds are passed on as bounds.

As a reminder, the Km is the substrate concentration at which the rate is half of its maximum. For `CC(C)CC(=O)O` [iC5, isovalerate], in series [1], the Km was > 500 µM. On to `CC(C)C(=O)O` [iC4, isobutyrate], for which, in series [1] (read-out: apparent KM), the Km was < 10 µM.

B1: MbcS (methylbutyryl-CoA synthetase; SAUSA300_2542) (Staphylococcus aureus subsp. aureus USA300) (protein)
chain: T1 sequence (A0A0H2XHR6 1-532)
On to B1, for which the Km in the series “purified protein [2]” was 49.3 ± 6.9 µM; in the series “purified protein [3]” it was 144 µM; in the series “purified protein [4]”, 3.2 ± 0.2 µM.
